According to US6884600 (MEDICAL RESEARCH COUNCIL LONDON, dated 2005):
Each block holds one binder with its values, some of them ahead of it.

B1: β isoform of PP1c released from rabbit skeletal muscle PP1G (enzyme, UniProt P62143 2-327, looked up)
chain: ADGELNVDSLITRLLEVRGCRPGKIVQMTEAEVRGLCIKSREIFLSQPILLELEAPLKICGDIHGQYTDLLRLFEYGGFPPEANYLFLGDYVDRGKQSLETICLLLAYKIKYPENFFLLRGNHECASINRIYGFYDECKRRFNIKLWKTFTDCFNCLPIAAIVDEKIFCCHGGLSPDLQSMEQIRRIMRPTDVPDTGLLCDLLWSDPDKDVQGWGENDRGVSFTFGADVVSKFLNRHDLDLICRAHQVVEDGYEFFAKRQLVTLFSAPNYCGEFDNAGGMMSVDETLMCSFQILKPSEKKAKYQYGGLNSGRPVTPPRTANPPKKR
notes: mature; also called PP1 catalytic subunit

Key:
[1] = target: T1, myosin from chicken gizzard, dephosphorylated form (chicken, UniProt P10587 2-1979; P02612 2-172; P02607 2-151); assay: co-sedimentation with myosin, phosphatase activity in pellet and supernatant
T1 construct: mature; Native protein pelleted by centrifugation; 1 µM in terms of heavy chains; also called myosin dimer
Description: The PP1 catalytic subunit (PP1c), PP1_M, or PP1_M lacking the $M21$ subunit, $PP1_M(\Delta M21)$, each at 30 nM, were incubated for 15 min at 0° C. with 1 μM myosin and centrifuged (see Methods of Example 3). […] The results shown are the average (±S.E.M.) for three separate experiments each assayed in duplicate.
Myosin binding assays. Myosin (0.5 mg/ml, 1 µM in terms of myosin heavy chains) in 10 mM Hepes pH 7.5, 50 mM KCl, 5 mM MgCl2, 0.1% (by vol) 2-mercaptoethanol, was mixed with PP1_M, M$21$ subunit, or fragments of the M$110$ and M$21$ subunits, at the concentrations indicated in figure legends. After incubation for 15 min at 0° C., the solutions were centrifuged for 2 min at 13,000×g, the supernatants removed, and the pellets washed twice in 10 mM Hepes pH 7.5, 50 mM KCl, 5 mM MgCl2, 0.1% (by vol) 2-mercaptoethanol before resuspension in 50 mM Tris-HCl pH 7.5, 0.1 mM EGTA, 0.03% (by mass) Brij 35, 0.6 M NaCl, 0.1% (by vol) 2-mercaptoethanol. Aliquots of the supernatant, the resuspended pellet and the suspension before centrifugation were either assayed for myosin P-light chain phosphatase activity or denatured in SDS and analysed by SDS/polyacrylamide gel electrophoresis.

MBP-M110-(K933-I1004) = target: T2, MBP-M110-(K933-I1004) (chicken, UniProt Q90623 933-1004, digoxigenin label when used as probe); assay: Far Western, blot probed with digoxigenin-labelled MBP-M110-(K933-I1004)
T2 construct: also called digoxigenin-labelled MBP-M110-(K933-I1004); digoxigenin-labelled M110-(K933-I1004)
T2 sequence: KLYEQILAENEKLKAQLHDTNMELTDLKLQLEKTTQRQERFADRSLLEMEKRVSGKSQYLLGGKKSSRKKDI
Description: A) GST-$M21$ 5 μg (track 1), $M21$ 5 μg (track 2), $M21$-(M1-L146) 5 μg (track 3), $M21$-(M1-E110) 20 μg (track 4) and $M21$-(E110-K186) 5 μg (track 5) were run on 16.5% polyacrylamide gels and stained with Coomassie Blue. The marker proteins ovalbumin (43 kDa) and carbonic anhydrase (29 kDa) are indicated. B) GST-$M21$ 0.5 μg (track 1), $M21$ 0.5 μg (track 2), $M21$-M1-L146) 0.5 μg (track 3), $M21$-(M1-E110) 5 μg (track 4) and $M21$-(E110-K186) 5 μg (track 5) were electrophoresed as in A) and after transfer to nitrocellulose the blots were probed with digoxigenin-labelled MBP-$M110$-(K933-I1004) (0.2 μg/Ml). C) same as B) except that, after electrophoresis, the proteins were transferred to nitrocellulose and probed with digoxigenin-labelled $M21$ subunit (0.2 μg/ml).

[2] = target: B1; assay: cell-based or functional assay
[3] = target: T1, myosin from chicken gizzard, …; assay: not described in Example 1

T1 sequence (P10587 2-1979, chain 1 of 3): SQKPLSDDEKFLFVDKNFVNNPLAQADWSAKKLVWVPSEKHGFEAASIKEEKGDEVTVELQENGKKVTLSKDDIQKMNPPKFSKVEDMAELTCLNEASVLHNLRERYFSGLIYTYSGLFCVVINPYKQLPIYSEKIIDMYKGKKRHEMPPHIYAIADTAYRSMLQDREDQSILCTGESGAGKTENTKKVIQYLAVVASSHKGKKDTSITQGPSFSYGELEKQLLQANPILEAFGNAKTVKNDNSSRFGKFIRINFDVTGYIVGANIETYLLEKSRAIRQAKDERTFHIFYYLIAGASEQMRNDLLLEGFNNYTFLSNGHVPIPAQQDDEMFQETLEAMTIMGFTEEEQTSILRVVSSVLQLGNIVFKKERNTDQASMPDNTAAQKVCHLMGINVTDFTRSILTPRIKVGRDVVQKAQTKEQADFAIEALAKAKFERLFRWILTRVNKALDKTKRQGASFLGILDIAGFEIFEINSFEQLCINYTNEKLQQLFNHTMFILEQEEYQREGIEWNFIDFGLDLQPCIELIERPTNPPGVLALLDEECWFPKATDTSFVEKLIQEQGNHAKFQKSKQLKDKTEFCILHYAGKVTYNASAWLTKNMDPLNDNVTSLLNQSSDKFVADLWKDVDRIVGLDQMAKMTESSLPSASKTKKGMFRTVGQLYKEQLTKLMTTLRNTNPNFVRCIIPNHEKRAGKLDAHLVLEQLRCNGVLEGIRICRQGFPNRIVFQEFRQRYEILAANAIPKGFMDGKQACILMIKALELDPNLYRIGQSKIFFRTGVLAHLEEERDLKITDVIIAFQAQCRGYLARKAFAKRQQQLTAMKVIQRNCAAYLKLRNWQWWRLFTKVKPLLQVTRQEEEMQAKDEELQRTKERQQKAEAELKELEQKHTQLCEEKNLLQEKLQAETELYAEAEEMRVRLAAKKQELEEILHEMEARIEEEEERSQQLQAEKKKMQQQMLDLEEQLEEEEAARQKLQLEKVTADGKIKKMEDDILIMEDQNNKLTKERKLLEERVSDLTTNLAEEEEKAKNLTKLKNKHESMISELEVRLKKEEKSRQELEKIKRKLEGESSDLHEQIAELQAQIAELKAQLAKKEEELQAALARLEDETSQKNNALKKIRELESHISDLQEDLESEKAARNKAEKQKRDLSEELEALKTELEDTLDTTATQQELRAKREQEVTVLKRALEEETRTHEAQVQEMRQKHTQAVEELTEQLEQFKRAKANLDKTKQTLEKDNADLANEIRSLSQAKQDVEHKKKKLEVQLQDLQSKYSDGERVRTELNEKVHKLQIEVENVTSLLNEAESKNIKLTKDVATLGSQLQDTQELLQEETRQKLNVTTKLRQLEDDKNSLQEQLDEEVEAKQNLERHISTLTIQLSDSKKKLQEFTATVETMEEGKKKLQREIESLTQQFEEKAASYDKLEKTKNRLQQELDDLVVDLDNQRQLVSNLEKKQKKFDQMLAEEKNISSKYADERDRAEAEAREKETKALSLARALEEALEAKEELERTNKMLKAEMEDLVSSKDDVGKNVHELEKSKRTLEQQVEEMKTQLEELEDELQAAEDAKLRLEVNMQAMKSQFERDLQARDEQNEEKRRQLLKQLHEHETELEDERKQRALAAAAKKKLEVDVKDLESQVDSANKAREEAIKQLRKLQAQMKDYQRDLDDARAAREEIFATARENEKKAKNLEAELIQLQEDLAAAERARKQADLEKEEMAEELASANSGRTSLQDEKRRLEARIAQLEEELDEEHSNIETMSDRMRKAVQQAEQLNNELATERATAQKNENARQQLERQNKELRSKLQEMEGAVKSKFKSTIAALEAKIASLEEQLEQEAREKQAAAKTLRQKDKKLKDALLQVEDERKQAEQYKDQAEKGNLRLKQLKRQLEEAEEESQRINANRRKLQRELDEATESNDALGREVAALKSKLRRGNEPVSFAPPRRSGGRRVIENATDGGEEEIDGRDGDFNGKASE
T1 sequence (P02612 2-172, chain 2 of 3): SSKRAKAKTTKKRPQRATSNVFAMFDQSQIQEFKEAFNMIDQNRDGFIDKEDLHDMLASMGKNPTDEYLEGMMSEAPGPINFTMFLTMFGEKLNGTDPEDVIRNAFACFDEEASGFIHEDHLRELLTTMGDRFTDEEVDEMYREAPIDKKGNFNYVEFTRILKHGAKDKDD
T1 sequence (P02607 2-151, chain 3 of 3): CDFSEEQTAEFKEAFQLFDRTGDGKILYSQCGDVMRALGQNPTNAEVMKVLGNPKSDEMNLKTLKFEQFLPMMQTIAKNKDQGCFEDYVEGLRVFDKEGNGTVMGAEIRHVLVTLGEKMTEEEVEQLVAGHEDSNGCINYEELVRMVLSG

Binder: B1
binding result [1]: no binding (tested: 30 nM with 1 µM myosin)

binding result (MBP-M110-(K933-I1004)): no binding (tested: 0.2 µg/ml probe)
B2: M21-(M1-E110), released from GST with thrombin (other)
chain: MSSLFTRSKEYTRSRKSQSDSPPSSPSPIAKTLRHERLSRLEAATTPATSDSYSDRASSRSSAYSRRENRLAALSSRAEEESNRDYKKLYESALSENQKLKSKLQEAQLEA
notes: not shown: the few vector residues left at the N terminus after thrombin cleavage of the modified pGEX fusion

MLC20 phosphatase activity of PP1c [2]: ~3 fold
binding result [3]: no binding
B3: M110-(M1-E309), released from GST with thrombin (other)
chain: GSPGMKMADAKQKRNEQLKRWIGSETDLEPPVVKRQKTKVKFDDGAVFLAACSSGDTDEVLKLLHRGADINYANVDGLTALHQACIDDNVDMVKFLVENGANINQPDNEGWIPLHAAASCGYLDIAEFLIGQGAHVGAVNSEGDTPLDIAEEEAMEELLQNEVNRQGVDIEAARKEEERIMLRDARQWLNSGHISDVRHAKSGGTALHVAAAKGYTEVLKLLIQAGYDVNIKDYDGWTPLHAAAHWGKEEACRILVDNLCDMETVNKVGQTAFDVADEDILGYLEELQKKQNLLHSEKRDKKSPLIESTANMEA
notes: Rat aorta M110 fragment; free GST was left in the solution after cleavage; also called M100-(M1-E309)
